Six variants from FireProtDB (doi:10.1021/bi9901228) can be followed below.

The labels stand for the following.
B1: Lysozyme C, P61626 (parent)
chain: MKALIVLGLVLLSVTVQGKVFERCELARTLKRLGMDGYRGISLANWMCLAKWESGYNTRATNYNAGDRSTDYGIFQINSRYWCNDGKTPGAVNACHLSCSALLQDNIADAVACAKRVVRDPQGIRAWVAWRNRCQNRDVRQYVQGCGV

One data set covers variants of B1. The conditions noted are these: Homo sapiens; pH 2.51; Thermal; DSC; glycine 0.05 M; reversible: yes; structure 1LZ1; whole UniProt chain shown.
Consider S79A, for which the Tm was 57 °C, the “heat capacity change of unfolding” value was 1.1 kcal/mol/K, the “unfolding enthalpy (calorimetric)” value was 99 kcal/mol and the “unfolding enthalpy (van 't Hoff)” value is 103 kcal/mol.

With S100A, the Tm worked out at 62.5 °C, the “heat capacity change of unfolding” value was found to be 1.41 kcal/mol/K, the “unfolding enthalpy (calorimetric)” value turned out to be 111 kcal/mol and the “unfolding enthalpy (van 't Hoff)” value was determined as 117 kcal/mol.

In the case of S69A, the Tm turned out to be 61 °C, the “heat capacity change of unfolding” value amounted to 1.48 kcal/mol/K, the “unfolding enthalpy (calorimetric)” value stood at 106 kcal/mol and the “unfolding enthalpy (van 't Hoff)” value was 113 kcal/mol.

The data set is the same for the next values; noted with them: Homo sapiens; pH 2.7; Thermal; DSC; glycine 0.05 M; reversible: yes; structure 1LZ1; whole UniProt chain shown.
For S79A, the Tm amounted to 60.6 °C; the “change of melting temperature, mutant - wild type (higher = more stable)” value (from here on “change of melting temperature, mutant”) is -4.3 °C; the “heat capacity change of unfolding” value was found to be 1.27 kcal/mol/K; the “unfolding enthalpy (calorimetric)” value was 109 kcal/mol.

As for S54A, the Tm was found to be 61.4 °C; the “change of melting temperature, mutant” value was -3.5 °C; the “heat capacity change of unfolding” value worked out at 1.31 kcal/mol/K; the “unfolding enthalpy (calorimetric)” value stood at 109 kcal/mol.

For the variant S100A, the midpoint of thermal melting (Tm) stood at 66 °C; the “change of melting temperature, mutant” value turned out to be 1.1 °C; the “heat capacity change of unfolding” value was determined as 1.27 kcal/mol/K; the “unfolding enthalpy (calorimetric)” value amounted to 114 kcal/mol.

Take S42A: the Tm came out at 63.3 °C; the “change of melting temperature, mutant” value is -1.6 °C; the “heat capacity change of unfolding” value came out at 1.51 kcal/mol/K; the “unfolding enthalpy (calorimetric)” value was 110 kcal/mol.

Regarding S98A, the Tm was 66.3 °C; the “change of melting temperature, mutant” value was determined as 1.4 °C; the “heat capacity change of unfolding” value was 1.43 kcal/mol/K; the “unfolding enthalpy (calorimetric)” value came out at 116 kcal/mol.

For S69A, the Tm was 64.2 °C; the “change of melting temperature, mutant” value was -0.7 °C; the “heat capacity change of unfolding” value came out at 1.43 kcal/mol/K; the “unfolding enthalpy (calorimetric)” value is 112 kcal/mol.

Still in this data set, the particulars now being: Homo sapiens; pH 2.84; Thermal; DSC; glycine 0.05 M; reversible: yes; structure 1LZ1; whole UniProt chain shown.
Turning to S79A, the Tm came out at 63.6 °C, the “heat capacity change of unfolding” value came out at 1.15 kcal/mol/K, the “unfolding enthalpy (calorimetric)” value was 107 kcal/mol and the “unfolding enthalpy (van 't Hoff)” value is 111 kcal/mol.

Take S54A: the Tm was found to be 64 °C, the “heat capacity change of unfolding” value was determined as 1.24 kcal/mol/K, the “unfolding enthalpy (calorimetric)” value worked out at 107 kcal/mol and the “unfolding enthalpy (van 't Hoff)” value stood at 113 kcal/mol.

Staying with this data set, now noted: Homo sapiens; pH 3.1; Thermal; DSC; glycine 0.05 M; reversible: yes; structure 1LZ1; whole UniProt chain shown.
Regarding S79A, the Tm turned out to be 68.3 °C, the “heat capacity change of unfolding” value came to 1.31 kcal/mol/K, the “unfolding enthalpy (calorimetric)” value amounted to 113 kcal/mol and the “unfolding enthalpy (van 't Hoff)” value was 118 kcal/mol.

The data set is the same for the next values; noted with them: Homo sapiens; pH 2.47; Thermal; DSC; glycine 0.05 M; reversible: yes; structure 1LZ1; whole UniProt chain shown.
Turning to S54A, the Tm turned out to be 57.1 °C, the “heat capacity change of unfolding” value worked out at 1.31 kcal/mol/K, the “unfolding enthalpy (calorimetric)” value came to 98.5 kcal/mol and the “unfolding enthalpy (van 't Hoff)” value worked out at 103 kcal/mol.

The data set is the same for the next values; noted with them: Homo sapiens; pH 2.67; Thermal; DSC; glycine 0.05 M; reversible: yes; structure 1LZ1; whole UniProt chain shown.
S54A: the Tm came out at 60.8 °C, the “heat capacity change of unfolding” value was 1.31 kcal/mol/K, the “unfolding enthalpy (calorimetric)” value stood at 104 kcal/mol and the “unfolding enthalpy (van 't Hoff)” value turned out to be 109 kcal/mol.

Still in this data set, the particulars now being: Homo sapiens; pH 3.09; Thermal; DSC; glycine 0.05 M; reversible: yes; structure 1LZ1; whole UniProt chain shown.
Regarding S54A, the Tm was 68.7 °C, the “heat capacity change of unfolding” value amounted to 1.22 kcal/mol/K, the “unfolding enthalpy (calorimetric)” value was 114 kcal/mol and the “unfolding enthalpy (van 't Hoff)” value is 119 kcal/mol.

On to S42A, for which the midpoint of thermal melting (Tm) worked out at 70.3 °C, the “heat capacity change of unfolding” value is 1.41 kcal/mol/K, the “unfolding enthalpy (calorimetric)” value was 118 kcal/mol and the “unfolding enthalpy (van 't Hoff)” value was found to be 123 kcal/mol.

Still in this data set, the particulars now being: Homo sapiens; pH 2.85; Thermal; DSC; glycine 0.05 M; reversible: yes; structure 1LZ1; whole UniProt chain shown.
For S100A, the Tm came to 68.9 °C, the “heat capacity change of unfolding” value worked out at 1.2 kcal/mol/K, the “unfolding enthalpy (calorimetric)” value worked out at 120 kcal/mol and the “unfolding enthalpy (van 't Hoff)” value was determined as 128 kcal/mol.

Take S98A: the Tm turned out to be 69.1 °C, the “heat capacity change of unfolding” value came out at 1.34 kcal/mol/K, the “unfolding enthalpy (calorimetric)” value was 122 kcal/mol and the “unfolding enthalpy (van 't Hoff)” value was 129 kcal/mol.

The same data set, now with this note: Homo sapiens; pH 3.12; Thermal; DSC; glycine 0.05 M; reversible: yes; structure 1LZ1; whole UniProt chain shown.
Consider S100A, for which the Tm worked out at 73.5 °C, the “heat capacity change of unfolding” value stood at 1.41 kcal/mol/K, the “unfolding enthalpy (calorimetric)” value was 125 kcal/mol and the “unfolding enthalpy (van 't Hoff)” value is 133 kcal/mol.

The same data set, now with this note: Homo sapiens; pH 2.46; Thermal; DSC; glycine 0.05 M; reversible: yes; structure 1LZ1; whole UniProt chain shown.
For S42A, the midpoint of thermal melting (Tm) is 58.8 °C, the “heat capacity change of unfolding” value came out at 1.46 kcal/mol/K, the “unfolding enthalpy (calorimetric)” value was determined as 101 kcal/mol and the “unfolding enthalpy (van 't Hoff)” value turned out to be 105 kcal/mol.

The same data set, now with this note: Homo sapiens; pH 2.66; Thermal; DSC; glycine 0.05 M; reversible: yes; structure 1LZ1; whole UniProt chain shown.
As for S42A, the Tm was found to be 62.5 °C, the “heat capacity change of unfolding” value was found to be 1.67 kcal/mol/K, the “unfolding enthalpy (calorimetric)” value is 106 kcal/mol and the “unfolding enthalpy (van 't Hoff)” value was 111 kcal/mol.

The data set is the same for the next values; noted with them: Homo sapiens; pH 2.82; Thermal; DSC; glycine 0.05 M; reversible: yes; structure 1LZ1; whole UniProt chain shown.
For S42A, the Tm turned out to be 65.7 °C, the “heat capacity change of unfolding” value came to 1.55 kcal/mol/K, the “unfolding enthalpy (calorimetric)” value was 112 kcal/mol and the “unfolding enthalpy (van 't Hoff)” value was 117 kcal/mol.

Staying with this data set, now noted: Homo sapiens; pH 2.5; Thermal; DSC; glycine 0.05 M; reversible: yes; structure 1LZ1; whole UniProt chain shown.
As for S98A, the Tm was 62.7 °C, the “heat capacity change of unfolding” value stood at 1.41 kcal/mol/K, the “unfolding enthalpy (calorimetric)” value was 113 kcal/mol and the “unfolding enthalpy (van 't Hoff)” value came to 120 kcal/mol.

Still in this data set, the particulars now being: Homo sapiens; pH 2.69; Thermal; DSC; glycine 0.05 M; reversible: yes; structure 1LZ1; whole UniProt chain shown.
As to S98A, the Tm came to 66.2 °C, the “heat capacity change of unfolding” value came to 1.34 kcal/mol/K, the “unfolding enthalpy (calorimetric)” value stood at 119 kcal/mol and the “unfolding enthalpy (van 't Hoff)” value is 126 kcal/mol.

On to S69A, for which the Tm was determined as 64.2 °C, the “heat capacity change of unfolding” value is 1.43 kcal/mol/K, the “unfolding enthalpy (calorimetric)” value turned out to be 111 kcal/mol and the “unfolding enthalpy (van 't Hoff)” value is 118 kcal/mol.

The same data set, now with this note: Homo sapiens; pH 3.11; Thermal; DSC; glycine 0.05 M; reversible: yes; structure 1LZ1; whole UniProt chain shown.
As for S98A, the Tm was found to be 73.6 °C, the “heat capacity change of unfolding” value was 1.39 kcal/mol/K, the “unfolding enthalpy (calorimetric)” value turned out to be 129 kcal/mol and the “unfolding enthalpy (van 't Hoff)” value amounted to 135 kcal/mol.

Consider S69A, for which the Tm worked out at 70.8 °C, the “heat capacity change of unfolding” value is 1.36 kcal/mol/K, the “unfolding enthalpy (calorimetric)” value turned out to be 120 kcal/mol and the “unfolding enthalpy (van 't Hoff)” value is 126 kcal/mol.

The same data set, now with this note: Homo sapiens; pH 2.86; Thermal; DSC; glycine 0.05 M; reversible: yes; structure 1LZ1; whole UniProt chain shown.
As to S69A, the Tm stood at 66.7 °C, the “heat capacity change of unfolding” value was 1.55 kcal/mol/K, the “unfolding enthalpy (calorimetric)” value came to 115 kcal/mol and the “unfolding enthalpy (van 't Hoff)” value came out at 121 kcal/mol.

By Tm is commonly meant the temperature at which the thermal transition is half complete.
